Assay results taken from doi:10.1101/2020.04.11.036434 (bioRxiv, 2020).

Experiments:
[1] = target: T1, P-Rex2 DEP2-IP4P (residues 472-1606) (UniProt Q70Z35 472-1606); test: SPR
T1 sequence: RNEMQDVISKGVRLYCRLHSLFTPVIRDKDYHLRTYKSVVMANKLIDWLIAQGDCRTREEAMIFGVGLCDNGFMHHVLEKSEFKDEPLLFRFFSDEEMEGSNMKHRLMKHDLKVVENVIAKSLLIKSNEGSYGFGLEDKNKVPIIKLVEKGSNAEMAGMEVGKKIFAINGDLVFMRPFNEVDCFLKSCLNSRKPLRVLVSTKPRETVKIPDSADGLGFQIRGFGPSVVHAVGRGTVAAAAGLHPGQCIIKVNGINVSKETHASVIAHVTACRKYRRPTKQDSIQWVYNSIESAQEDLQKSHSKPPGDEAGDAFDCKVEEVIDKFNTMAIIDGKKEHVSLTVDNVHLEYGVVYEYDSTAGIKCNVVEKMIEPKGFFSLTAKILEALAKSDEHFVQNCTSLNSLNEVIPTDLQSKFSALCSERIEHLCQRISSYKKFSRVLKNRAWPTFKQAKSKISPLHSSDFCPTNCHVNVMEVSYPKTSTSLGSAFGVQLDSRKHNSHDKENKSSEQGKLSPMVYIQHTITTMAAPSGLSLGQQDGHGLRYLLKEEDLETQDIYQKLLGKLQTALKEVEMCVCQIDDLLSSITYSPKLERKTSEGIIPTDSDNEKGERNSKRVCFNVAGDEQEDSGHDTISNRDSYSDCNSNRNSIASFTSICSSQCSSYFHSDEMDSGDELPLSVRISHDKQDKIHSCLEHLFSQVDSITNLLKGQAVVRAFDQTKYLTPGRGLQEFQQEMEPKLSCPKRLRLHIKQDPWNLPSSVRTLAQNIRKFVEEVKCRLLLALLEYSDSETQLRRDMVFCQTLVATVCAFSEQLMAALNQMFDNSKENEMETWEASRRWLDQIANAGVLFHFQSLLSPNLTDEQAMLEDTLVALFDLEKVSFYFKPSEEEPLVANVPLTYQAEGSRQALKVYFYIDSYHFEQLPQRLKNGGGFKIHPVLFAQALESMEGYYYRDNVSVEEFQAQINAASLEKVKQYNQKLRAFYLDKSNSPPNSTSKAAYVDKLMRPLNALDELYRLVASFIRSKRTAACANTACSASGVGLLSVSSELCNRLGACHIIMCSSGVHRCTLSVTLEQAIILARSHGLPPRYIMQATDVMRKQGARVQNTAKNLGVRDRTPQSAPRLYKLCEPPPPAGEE

[2] = target: P-Rex2 (WT), recombinant full-length (UniProt Q70Z35 1-1606); test: pull-down

binding result [1]: binds
binding result [2]: binds
B1: PTEN (WT), recombinant insect-cell purified (natural protein)
chain: not shown
